Experimental data from article doi:10.1101/2024.06.24.600433, “Role of the antiparallel double-stranded filament form of FtsA in activating the Escherichia coli divisome” (bioRxiv, 2024).
Numbering of substitutions follows the chain as printed. In names and notes the source's numbering stands.

Legend:
[1] = target: the molecule itself; assay: cross-linking; in vivo cysteine crosslinking of E. coli cells in cold PBS with 0.5 mM BMB or BMH for 10 min, quenched with 40 mM BME; SDS-PAGE and anti-FtsA immunoblot; dividing cells (ftsZ84(ts) 10 and 20 min after return to 30°C; ftsQ1ts, zipA1ts and ftsA^o strains at 30°C, ftsA^o strain also at 42°C; WM4952 at 37°C; WM4953 ftsL*)
[2] = target: the molecule itself; assay: cross-linking; in vivo cysteine crosslinking, zipA1(ts) strain WM7149 shifted to the nonpermissive 42°C; anti-FtsA immunoblot
[3] = target: the molecule itself; assay: cross-linking; in vivo cysteine crosslinking, ftsQ1(ts) strain WM7148 shifted to the nonpermissive 42°C; anti-FtsA immunoblot

B1: FtsA^M71A with Q155C (natural protein, E. coli, UniProt P0ABH0 1-420, looked up)
chain: MIKATDRKLVVGLEIGTAKVAALVGEVLPDGMVNIIGVGSCPSRGMDKGGVNDLESVVKCVQRAIDQAELAADCQISSVYLALSGKHISCQNEIGMVPISEEEVTQEDVENVVHTAKSVRVRDEHRVLHVIPQEYAIDYQEGIKNPVGLSGVRMCAKVHLITCHNDMAKNIVKAVERCGLKVDQLIFAGLASSYSVLTEDERELGVCVVDIGGGTMDIAVYTGGALRHTKVIPYAGNVVTSDIAYAFGTPPSDAEAIKVRHGCALGSIVGKDESVEVPSVGGRPPRSLQRQTLAEVIEPRYTELLNLVNEEILQLQEKLRQQGVKHHLAAGIVLTGGAAQIEGLAACAQRVFHTQVRIGAPLNITGLTDYAQEPYYSTAVGLLHYGKESHLNGEAEVEKRVTASVGSWIKRLNSWLRKEF
notes: FtsA of E. coli with M71A and Q155C; M71A introduced into pWM7049 or pWM7239 by site-directed mutagenesis; I take them to be the Q155C and the R286W Q155C derivatives of pDSW210-FLAG-FtsA; source: E. coli, expressed from a plasmid, in cells (crosslinked in vivo)
- DS filament crosslinking at Q155C relative to WT FtsA [1]: ~35 % of WT levels

B2: FLAG-FtsA^Q155C (natural protein, E. coli, UniProt P0ABH0 1-420, looked up)
chain: B1 chain with A71M
notes: FtsA of E. coli with Q155C, made by site-directed mutagenesis on pWM2785 (pDSW210-FLAG-FtsA); probably the whole FtsA reading frame, since it complements an ftsA null allele; also called pDSW210-FLAG-FtsA^Q155C; source: E. coli, expressed from pDSW210 with IPTG, in cells (crosslinked in vivo); not shown: FLAG, N-terminal, kept
- fold decrease of the crosslinked band at 42°C against 30°C [2]: 7.5 fold
- fold decrease of the crosslinked band at 42°C against 30°C [3]: 3 fold
